Sequences and labels used below:
B1: NF2 (merlin) isoform 7, human, full length (507 aa, lacks exons 2-3 = isoform-1 residues 39-121; exon-16 C-terminus), P35240-4 (parent)
chain: MAGAIASRMSFSSLKRKQPKTFTVRIVTMDAEMEFNCEVKKQILDEKIYCPPEASVLLASYAVQAKYGDYDPSVHKRGFLAQEELLPKRVINLYQMTPEMWEERITAWYAEHRGRARDEAEMEYLKIAQDLEMYGVNYFAIRNKKGTELLLGVDALGLHIYDPENRLTPKISFPWNEIRNISYSDKEFTIKPLDKKIDVFKFNSSKLRVNKLILQLCIGNHDLFMRRRKADSLEVQQMKAQAREEKARKQMERQRLAREKQMREEAERTRDELERRLLQMKEEATMANEALMRSEETADLLAEKAQITEEEAKLLAQKAAEAEQEMQRIKATAIRTEEEKRLMEQKVLEAEVLALKMAEESERRAKEADQLKQDLQEAREAERRAKQKLLEIATKPTYPPMNPIPAPLPPDIPSFNLIGDSLSFDFKDTDMKRLSMEIEKEKVEYMEKSKHLQEQLNELKTEIEALKLKERETALDILHNENSDRGGSSKHNTIKKPQAQGRRPICI

“And” between values parts separate entries of the source, which are not always exact repeats. Equal entries are not always repeated.

64 variants from publication PMC10244618 can be followed below.

The first experiment covers variants of B1. Briefly: reverse yeast two-hybrid deep mutational scan (rY2H-seq): NF2 isoform 7 mutant library as bait mated with wild-type prey strains; selection on medium lacking adenine for non-interacting pairs; NextSeq paired-end sequencing; enrichment vs …. As to conditions: with KDM1A (lysine-specific histone demethylase 1A; the table's label AOF2 is a gene synonym of KDM1A), O60341; yeast diploids after mating (RBait_S3 x RPrey_S3), 30 °C, selection for reporter genes on NB agar; human ABL2 co-expressed as the kinase-dead K35M mutant …; HIGHER = WEAKER BINDING (the opposite of display enrichments): higher = stronger loss of interaction: reverse Y2H selects yeast in which bait and prey do NOT interact (growth without adenine), so a …; hits-only table; scale: rY2H score; numbering: uniprot, sequence starts at 1. A general note: A reporter such as luciferase makes a cellular process visible.
Regarding V352S, the enrichment was 3.21.
Take A59S: the enrichment is 4.04.
On to N402L, for which the enrichment was 1.53.
A354L: the enrichment stood at 3.5.
Consider K313T, for which the enrichment is 11.8 and 11.3.
On to K313L, for which the enrichment was determined as 2.56.
As to Y67A, the enrichment was determined as 3.02.
Consider R166E, for which the enrichment came out at 1.81.
Turning to R166G, the enrichment was found to be 1.77.
As to K15E, the enrichment was 3.69.
On to K15L, for which the enrichment came out at 1.66.
Same read-out and setting: next, H159E: 3.49; H159P: 1.84; I160C: 1.87.
Consider Q345K, for which the enrichment is 2.79.
Q345L: the enrichment turned out to be 3.2.
R248C: the enrichment stood at 1.52.
Turning to Q324Y, the enrichment was determined as 1.47.
Consider R383A, for which the enrichment worked out at 1.83.
As to S361A, the enrichment was determined as 5.
On to S361P, for which the enrichment was 2.
Turning to L390C, the enrichment stood at 6.37.
Take E362L: the enrichment came to 2.21.
On to E382A, for which the enrichment stood at 2.37.
For A319L, the enrichment worked out at 4.6.
Still for that read-out and setting: next, P192S: 1.69; A302T: 1.57; R363G: 1.89.
Regarding D271L, the enrichment stood at 4.25.

The experiment is the same for the next values; noted with them: with EMILIN1 (elastin microfibril interfacer 1), Q9Y6C2; yeast diploids after mating (RBait_S3 x RPrey_S3), 30 °C, selection for reporter genes on NB agar; human tyrosine kinase ABL2 co-expressed as the active kinase …; HIGHER = WEAKER BINDING (the opposite of display enrichments): higher = stronger loss of interaction: reverse Y2H selects yeast in which bait and prey do NOT interact (growth without adenine), so a …; hits-only table; scale: rY2H score; numbering: uniprot, sequence starts at 1.
For N402Q, the enrichment was determined as 2.62.
For the variant N402L, the enrichment stood at 1.47.
G419L: the enrichment came to 2.72.
On to F415A, for which the enrichment was determined as 1.74.
Take K313T: the enrichment came out at 6.
Turning to L150A, the enrichment stood at 2.56.
Regarding R166S, the enrichment came out at 8.73.
Regarding R166N, the enrichment was determined as 2.2.
Still for that read-out and setting: next, H159L: 2.93.
Consider L478A, for which the enrichment stood at 1.45.
With Q317R, the enrichment turned out to be 1.98.
For the variant E464L, the enrichment was found to be 1.85.
On to E252K, for which the enrichment amounted to 1.41.
Take T397L: the enrichment stood at 2.34.
For the variant Q345E, the enrichment came out at 3.31.
For the variant Q345L, the enrichment is 2.57.
Regarding N416T, the enrichment is 2.76.
On to N416A, for which the enrichment amounted to 6.7.
Turning to N416R, the enrichment was determined as 3.29.
Consider R248K, for which the enrichment turned out to be 1.55.
Consider R248P, for which the enrichment is 1.52.
In the case of Q324Y, the enrichment turned out to be 1.67.
On the same count and under the same terms, next, V209A: 5.24.
For R383K, the enrichment is 2.82.
The same measure, in the same setting: next, R383A: 1.5 and 2.77; E391L: 2; L375K: 4.18.
With L375A, the enrichment turned out to be 4.49.
On the same count and under the same terms, to M446V belongs 2.65; to L390C, 5.21 and 8.08.
Regarding L371E, the enrichment amounted to 3.71.
On to L371A, for which the enrichment is 2.9 and 1.56.
For the variant E362K, the enrichment stood at 4.17.
On to Q376K, for which the enrichment was determined as 2.11.
On to R77W, for which the enrichment is 1.39.
Turning to E382A, the enrichment was 1.65.
Still for that read-out and setting: next, D162P: 2.72.
On to E377A, for which the enrichment is 4.03.
The same measure, in the same setting: to A319L belongs 2.38 and 3.16; to R335C, 2.88.
Same read-out and setting: to R335E belongs 2.52; to S483E, 1.84; to R363E, 3.15.
For the variant D271L, the enrichment came out at 2.2.

The same experiment, now with this note: with KDM1A (lysine-specific histone demethylase 1A; the table's label AOF2 is a gene synonym of KDM1A), O60341; yeast diploids after mating (RBait_S3 x RPrey_S3), 30 °C, selection for reporter genes on NB agar; human tyrosine kinase ABL2 co-expressed as the active kinase …; HIGHER = WEAKER BINDING (the opposite of display enrichments): higher = stronger loss of interaction: reverse Y2H selects yeast in which bait and prey do NOT interact (growth without adenine), so a …; hits-only table; scale: rY2H score; numbering: uniprot, sequence starts at 1.
As to A354L, the enrichment is 3.78.
The same measure, in the same setting: to R166G belongs 1.84.
Regarding R166N, the enrichment stood at 1.82.
Same read-out and setting: next, H159E: 1.44; H159L: 4.15 and 7.93; H159P: 3.93 and 3.02.
The same measure, in the same setting: to Q345E belongs 3.73; to Q345K, 1.61; to Q345L, 2.39.
The same measure, in the same setting: next, L375A: 3.07; S361A: 2.29 and 3.4; R335C: 1.78 and 2.82.
In the case of S483E, the enrichment is 1.8 and 1.81.

Staying with this experiment, now noted: with NF2 C-terminal domain (wild type; homomeric NF2-NF2 interaction), P35240; yeast diploids after mating (RBait_S3 x RPrey_S3), 30 °C, selection for reporter genes on NB agar; human ABL2 co-expressed as the kinase-dead K35M mutant …; HIGHER = WEAKER BINDING (the opposite of display enrichments): higher = stronger loss of interaction: reverse Y2H selects yeast in which bait and prey do NOT interact (growth without adenine), so a …; hits-only table; partner unresolved; scale: rY2H score; numbering: uniprot, sequence starts at 1.
F415A: the enrichment is 2.73.
For K313T, the enrichment was 6.36 and 7.06.
The same measure, in the same setting: to K313L belongs 2.4; to Q345L, 1.49 and 2.6.
As for R383K, the enrichment was 1.66.
Same read-out and setting: to L375K belongs 6.66; to L390C, 4.75.
As for L371A, the enrichment is 2.88.
As to E382A, the enrichment turned out to be 2.83.

Staying with this experiment, now noted: with PIK3R3 (phosphatidylinositol 3-kinase regulatory subunit gamma), Q92569; yeast diploids after mating (RBait_S3 x RPrey_S3), 30 °C, selection for reporter genes on NB agar; human tyrosine kinase ABL2 co-expressed as the active kinase …; HIGHER = WEAKER BINDING (the opposite of display enrichments): higher = stronger loss of interaction: reverse Y2H selects yeast in which bait and prey do NOT interact (growth without adenine), so a …; hits-only table; scale: rY2H score; numbering: uniprot, sequence starts at 1.
K313T: the enrichment is 9.73 and 7.27.
As for R166E, the enrichment is 1.52.
For R166G, the enrichment is 1.44.
On the same count and under the same terms, to H159E belongs 6.11; to H159L, 6.72; to I160C, 1.68.
Consider Q345E, for which the enrichment was 3.74.
For L375K, the enrichment is 5.19.
Consider S361P, for which the enrichment was determined as 3.03.
With L390C, the enrichment stood at 10.7.
For the variant L371A, the enrichment was 1.38.
For E382A, the enrichment is 3 and 1.89.
S483E: the enrichment stood at 3.26.
For A302T, the enrichment stood at 3.87.
Take R363E: the enrichment turned out to be 4.76.
